The record followed here is publication PMC8835902.

Data set [1] deals with LDgp5 (LoopDel);thioredoxin (trx) D5A;E7A;beta-hairpin;loop;replaced;by;SGSG (bacteriophage T7;Escherichia coli?) (UniProt P00581+P0AA25). Description: EMSA. The note with it: 20 mM Hepes pH 7.5, 1 mM EDTA, 100 mM KCl, 0.1 mM bME, 5% glycerol, 0.10 mg/mL BSA, 10 nM DNA, 25 C (30 min; 15 min + 15 min for supershift). (In general: A gel shift assay detects complexes by their altered migration in electrophoresis.)

Data set [2] deals with WTgp5-trx complex (T7 gp5 DNA polymerase D5A, E7A with thioredoxin) (bacteriophage T7 | not stated) (UniProt P00581).

Take “GGATTATTTACATTGGCAGATTCACC / TTATTAGTTATGATATTCATGTATAGTTATATGGTGAATCTGCCAATGTAAATAATCC / TATTCATGTATAGTTATGTAGAGACCGAGATCCGCGCTGCCAGTCGGCAGAGCC [Fork template 0gap]”: the Kd – broadly, the constant that tells how readily two partners part at equilibrium – in data set [1] came out at 130 nM.
Still for that read-out and setting: the result for “GGATTATTTACATTGGCAGATTCACC / TTATTAGTTATGATATTCATGTATAGTTATATGGTGAATCTGCCAATGTAAATAATCC / TATTCATGTATAGTTATGTAGAGTCCGAGATCCGCGCTGCCAGTCGGCAGAGCC [Fork template 1gap]” reads 130 nM.
Consider “GGATTATTTACATTGGCAGATTCACC / TTATTAGTTATGATATTCATGTATAGTTATATGGTGAATCTGCCAATGTAAATAATCC / TATTCATGTATAGTTATGTAGAGTTCCGAGATCCGCGCTGCCAGTCGGCAGAGCC [Fork template 2gap]”, for which, in data set [1], the Kd came to 130 nM.
“GGATTATTTACATTGGCAGATTCACC / TTATTAGTTATGATATTCATGTATAGTTATATGGTGAATCTGCCAATGTAAATAATCC [Linear template-58nt]”: the binding signal (fold lower affinity than WTgp5) in data set [1] was 2.
In data set [2], “T7 gp4 E343Q with truncated C-terminal tails (from UniProt P03692 1-566) (enzyme)” came in with a fold decrease in 2-aminopurine fluorescence of fork DNA (local base-pair unwinding), 2-AP at N+3, against the EQgp4-WTgp5 complex of 2 fold.
